{"source": "paper PMC6172425", "about": "“Structural basis of inactivation of human counterpart of mouse motor neuron degeneration 2 mutant in serine protease HtrA2” (Bioscience Reports, 2018)", "proteins": {"B1": {"name": "Recombinant mature (Δ133) human HtrA2 S276C (enzyme, UniProt O43464 134-458, looked up)", "chain": "AVPSPPPASPRSQYNFIADVVEKTAPAVVYIEILDRHPFLGREVPISNGSGFVVAADGLIVTNAHVVADRRRVRVRLLSGDTYEAVVTAVDPVADIATLRIQTKEPLPTLPLGRSADVRQGEFVVAMGSPFALQNTITSGIVCSAQRPARDLGLPQTNVEYIQTDAAIDFGNSGGPLVNLDGEVIGVNTMKVTAGISFAIPSDRLREFLHRGEKKNSSSGISGSQRRYIGVMMLTLSPSILAELQLREPSFPDVQHGVLIHKVILGSPAHRAGLRPGDVILAIGEQMVQNAEDVYEAVRTQSQLAVQIRRGRETLTLYVTPEVTE", "notes": "human serine protease HtrA2, mature processed form (Δ133): the 458 amino acid precursor without its first 133 residues, with S276C; Made by site-directed mutagenesis of the wild-type construct in pET-20b; also called hHtrA2S276C; human counterpart of the mouse mnd2 mutant; source: E. coli Rosetta (DE3), purified (Ni-NTA, gel filtration)"}, "B2": {"name": "Recombinant mature (Δ133) human HtrA2, wild type (enzyme, UniProt O43464 134-458, looked up)", "chain": "B1 chain with C143S", "notes": "human serine protease HtrA2, mature processed form (Δ133): the 458 amino acid precursor without its first 133 residues, N-terminus AVPS; In pET-20b; PDB 1LCY is the S306A form of the mature protein; also called wt hHtrA2; hHtrA2; source: E. coli Rosetta (DE3), purified (Ni-NTA)"}}, "target": "the molecule itself", "assay": "SEC; Superdex S200 HR 10/300, 10 mM HEPES pH 8.0, 100 mM NaCl, protein ~20 mg/ml, 0.2 ml/min; calibrated with BSA, alcohol dehydrogenase, β-amylase", "note": "Residue numbers refer to the chain shown, from its start. Names and notes keep the numbering of the source.", "data": [{"protein": "B1", "values": [{"measurement": "binding result", "value": "binds"}]}, {"protein": "B2", "values": [{"measurement": "binding result", "value": "binds"}]}]}
